Molecular target: mink ryanodine receptor type 3 (RyR3) (mink)
Assay: cryo-EM structure

stoichiometry N: 4
Substance: mink ryanodine receptor type 3 (RyR3) (natural protein)

— article PMC11452665
